Sequences and labels used below:
B1: BD-623 Fab (Fab, V domains shown)
VH: EVQLVESGGGLVQPGGSLRLSCAASGVTVSSNYMSWVRQAPGKGLEWVSAVYSGGSTYYADSVKGRFTISRHNSKNTLYLQMKSLRPEDTAIYYCARLINHYYDSSGDGGAFDIWGQGTMVTVSS
VL: LTQPASVSGSPGQSITISCTGTSSDVGSYNLVSWYQQRPGKAPKLILYEVTKRPSGVSNRFSGSKSGNTASLAISGLQAEDEADYYCCSYAGSSTWVFGGGTKLTVL
B2: BD-508 Fab (Fab, V domains shown)
VH: EVQLVESGGGLVQPGGSLRLSCAASGFIVSSNYMTWVRQAPGKGLEWVSVIYSGGSTFYADSVKGRFTISRHNSKNTLFLQMNSLRAEDTAVYYCARDAQNYGMDVWGQGTTVTVSS
VL: DIQMTQSPSSLSASVGDRVTITCRASQSISSYLNWYQQKPGKAPKLLIFAASSLQTGAPSRFSGSGSGTDFTLTISSLQPEDFATYYCQQSYSTPPYTFGQGTKLEIK
B3: BD-515 Fab (Fab, V domains shown)
VH: EVQLVESGGGLVQPGGSLRLSCAASEFIVSRNYMSWVRQAPGKGLEWVSVIYSGGSTFYADSVKGRFTISRDNSKNTLYLQMNSLRAEDTGVYYCARDRGLVSDYWGQGTLVTVSS
VL: DIQMTQSPSSLSASVGDRVTITCQASQDINKYLNWYQQKPGKAPKLLIFDASHLETGVPSRFSASGSGTDFTFTISSLQPEDIATYYCHQYDNLPRTFGQGTRLEIK

This assay addresses SARS-CoV-2 S protein receptor-binding domain (RBD), residues 319–541 (SARS-CoV-2, UniProt P0DTC2). Kind of assay: crystal structure. Conditions: both partners purified.
For B1, the binding result is given as “binds”. With B2, the binding result is listed as “binds”.

In the case of B3, the binding result is listed as “binds”.

Values taken from article PMC8138844 (Cell Research, 2021).
